Test results as given in patent publication US20220324956A1.

How the values were obtained:
[1] = target: recombinant human osteopontin protein (GST-OPN-his, purified in house) (human) (UniProt P10451); assay: cell-based or functional assay
[2] = substrate: OPN antigen peptide YGLRSKS labeled with biotin (mouse and human (same sequence around the thrombin cleavage site)); assay: direct ELISA, biotinylated peptide on avidin-coated plate, purified IgG serially diluted, 4-parameter fit

Chain of UniProt P10451 (P10451 17-314): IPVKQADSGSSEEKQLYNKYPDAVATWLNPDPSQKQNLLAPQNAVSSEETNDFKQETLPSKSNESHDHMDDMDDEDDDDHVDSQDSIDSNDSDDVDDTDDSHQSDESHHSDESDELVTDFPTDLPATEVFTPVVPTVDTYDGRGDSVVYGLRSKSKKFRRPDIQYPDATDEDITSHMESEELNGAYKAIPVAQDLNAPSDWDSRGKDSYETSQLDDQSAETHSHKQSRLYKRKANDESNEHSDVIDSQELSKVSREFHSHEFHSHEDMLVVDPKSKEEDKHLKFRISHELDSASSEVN

Binder	% inhibition of thrombin cleavage of human OPN-FL (OPN-R generated, OPN-R specific ELISA) [1] [%]	EC50 [2] [ng/mL]
A2 rabbit monoclonal anti-osteopontin antibody (antibody, V domains shown) VH: QSVKESEGGLFKPTDTLTLTCKASGFTVSSYDMGWLRQAPGNGLESIGAIGSDGSEYYVSWARGRTAITRNTNQNTVTLKMTSLTAADTATYFCARDSHYSYGYDYDIWGPGTLVTVSS VL: QVLTQTPSPVSAAVGGTVSISCQSSQSIYSNYLSWYQQKPGQPPKLLIYYASTLASGVPSRFKGSGSGTQFTLTISGVQCDDAATYYCQGTYYVTGWYDAFGGGTEVVVKG	82	2.6
A6 rabbit monoclonal anti-osteopontin antibody (antibody, V domains shown) VH: QSVKESEGGLFKPTDTLTLTCKASGFTVSSYDMGWLRQAPGNGLESIGAIGSDGSEYYVSWARGRTTITRNTNQNTVTLKMTSLTAADTATYFCARDSHYSYGYDYDIWGPGTLVTVSS VL: QVLTQTPSPVSAAVGGTVSISCQSSQSIYSNYLSWYQQKPGQPPKLLIYYASTLASGVPSRFKGSGSGTQFTLTISGVQCDDAATYYCQGTYYVTGWYDAFGGGTEVVVKG	95.4	3.2
G7 rabbit monoclonal anti-osteopontin antibody (antibody, V domains shown) VH: QSVKESEGGLFKPTDTLTLTCTVSGFSLSSYGVSWVRQAPGNGLEWIGFIDKYGRTHYASWAKSRSTITRNTNENTVTLKMTSLTAADTATFLCARDDYRPAYGFDIWGPGTLVTVSS VL: QVLTQTASPVSAAVGSTVTINCQASQSVYNNNWLSWFQQKPGQPPKQLIYGASTLPSGVSSRFKGSGSGTQFTLTISDVQCDDAATYYCLGGYHWSTADCNVFGGGTEVVVKG	60.1	93.2
